Test results as given in paper PMC7331137.

Key:
[1] = biological target: IntC-CCre tagged with FLAG (UniProt P06956)
[2] = biological target: IntC-CCre tagged with FLAG (UniProt P06956); remark: listed apart in the source
[3] = biological target: IntC-CCre tagged with FLAG (UniProt P06956); remark: listed apart in the source

DsRed fluorescence from a LoxP-stop-LoxP DsRed reporter in HEK293T cells cotransfected with both constructs (none with either alone) [1]: 99%
TdTomato fluorescence in striatal neurons of Dlx6-CCre-IRES-eGFP reporter mice injected with NCre-IntN-mTagBFP2 lentivirus [2]: 78.3%
TdTomato expression in neurons of the central amygdala after injection of FuG-E-NCre-IntN retrograde lentivirus into the dorsal striatum of Dlx6-CCre-IRES-eGFP::LoxP-stop-LoxP-TdTomato mice [3]: 89.9%
Substance: NCre-IntN tagged with HA (from UniProt P06956 1-59)
